The results in this text go back to US20200031947A1 (RINAT NEUROSCIENCE, published 2020).

For assay [1], the target named is T1, human GITR on cells (human, UniProt Q9Y5U5 26-162).
T1 sequence: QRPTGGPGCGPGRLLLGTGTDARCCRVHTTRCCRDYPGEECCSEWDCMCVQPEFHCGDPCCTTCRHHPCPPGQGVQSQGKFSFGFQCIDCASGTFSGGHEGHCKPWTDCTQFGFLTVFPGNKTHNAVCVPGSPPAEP
As to the kind of experiment: cell-based or functional assay.

For assay [2], the target named is T2, human GITR (hGITR), soluble analyte (human, UniProt Q9Y5U5 26-162).
T2 sequence: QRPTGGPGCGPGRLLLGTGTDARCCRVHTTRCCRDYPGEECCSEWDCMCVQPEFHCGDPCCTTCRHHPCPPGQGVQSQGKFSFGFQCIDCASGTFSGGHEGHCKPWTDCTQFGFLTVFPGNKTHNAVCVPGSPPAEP
As to the kind of experiment: SPR (Biacore T200), 37 C; antibody captured on anti-human Fc chip, GITR as analyte; 1:1 Langmuir fit. The method, then:
(§1) The sensor chip preparation was performed at 25° C. with a running buffer of 10 mM HEPES, 150 mM NaCl, 0.05% (v/v) Tween-20, pH 7.4. An anti-human Fc sensor chip was made by activating all flow cells of a Biacore CM4 sensor chip with a 1:1 (v/v) mixture of 400 mM EDC and 100 mM NHS for 7 minutes, at a flow rate of 10 μL/min. An anti-human Fc reagent (Goat Anti-Human IgG Fc, SouthernBiotech Catalog #2081-01) was diluted to […] in 10 mM Sodium Acetate pH 4.5 and injected on all flow cells for 7 minutes at 20 μL/min. All flow cells were blocked with 100 mM ethylenediamine in 150 mM Borate buffer pH 8.5 for 7 minutes at 10 μL/min.
(§2) Antibodies were captured from undiluted supernatants onto downstream flow cells (flow cells 2, 3 and 4) at a flow rate of 10 μL/min for 2 minutes. Different antibodies were captured on each flow cell. Flow cell 1 was used as a reference surface. Following capture of antibodies, analyte (buffer, hGITR, or cyGITR) was injected at 30 μL/min on all flow cells for two minutes. After the analyte injection, dissociation was monitored for 10 minutes followed by regeneration of all flow cells with three 1-minute injections of 75 mM Phosphoric Acid. For each captured antibody, the following analyte injections were performed: buffer, 20 nM hGITR, 200 nM hGITR, 20 nM cyGITR and 200 nM cyGITR. Buffer cycles were collected for each captured antibody for double-referencing purposes (double-referencing as described in Myszka, J. Mol. Recognit. 12:279-284 (1999). The double-referenced sensorgrams were fit globally to a simple 1:1 Langmuir with mass transport binding model.

Assay [3] deals with T3, cynomolgus GITR (cyGITR), soluble analyte (cynomolgus).
T3 construct: Soluble analyte in SPR; construct not described; also called cGITR
Described as above. The protocol:
as §1, §2

Assay [4] has as its target T1, human GITR on cells. As to the kind of experiment: flow cytometry on in vitro expanded human Tregs; unconjugated antibody detected with A647 goat anti-human Fc gamma F(ab')2; MFI on antibody positive cells. The protocol:
Cultured Tregs would be tracked throughout expansion to check purity. Cells were re-suspended in FACS buffer, PBS with 2% FBS for analysis using fluorophore conjugated CD markers. FACS antibodies against GITR and other CD lymphocyte markers were prepared in FACS buffer at the appropriate concentration and incubated for 30 minutes at RT. Treg purity staining utilizes intracellular targets and were processed with Foxp3 fix/perm kit (Affymetrix/eBiosciense, San Diego, Calif.). Stained cells were resuspended in fresh FACS buffer and analyzed on a FACS analyzer LSRII or Fortessa (BD Biosciences, San Jose, Calif.). To generate kinetic and binding data unconjugated antibody was titrated from 10-0.001 ug/mL (1:10 in serial dilutions, triplicate wells per concentration) and incubated at 4c for 60 minutes with 1*10e5 expanded day 12 Tregs per well. Unbound antibody was washed from cells and an A647 labeled Fc gamma (Fcγ) Fragment Specific goat-anti-human affiniPure F(ab′)₂ IgG was used to detect bound antibody (Jackson ImmunoResearch Laboratories Inc, West Grove, Pa.). Analysis of stained cells completed with FlowJo (Treestar). Geometric mean of APC was used to calculate EC50 by log transforming the molar concentration and generating a non-linear fit curve in GraphPad Prism.
In general terms: A flow cytometer gives signals particle by particle.

For assay [5], the target named is T4, mouse GITR (mGITR), soluble analyte (mouse, UniProt O35714 20-153, limits assumed).
T4 construct: Soluble analyte in SPR; construct not described
T4 sequence (looked up): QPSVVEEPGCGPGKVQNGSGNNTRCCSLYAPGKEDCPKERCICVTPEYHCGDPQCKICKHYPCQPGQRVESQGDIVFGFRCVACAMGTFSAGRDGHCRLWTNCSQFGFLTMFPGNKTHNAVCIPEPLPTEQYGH
The assay is described as follows: SPR (Biacore T200), 37 C; purified antibody captured on anti-mouse Ig chip, mGITR as analyte (300 nM top, 3-fold series); 1:1 Langmuir fit. The protocol:
The sensor chip preparation was performed at 25° C. with a running buffer of 10 mM HEPES, 150 mM NaCl, 0.05% (v/v) Tween-20, pH 7.4. An anti-mouse Fc sensor chip was made by activating all flow cells of a Biacore CM4 sensor chip with a 1:1 (v/v) mixture of 400 mM EDC and 100 mM NHS for 7 minutes, at a flow rate of 10 μL/min. An anti-mouse immunoglobulin reagent (Rabbit anti-mouse immunoglobulin antibodies from Biacore Mouse Antibody Capture Kit, GE Lifesciences Catalog # BR-1008-38) was diluted to […] in 10 mM Sodium Acetate pH 5.0 and injected on all flow cells for 7 minutes at 20 μL/min. All flow cells were blocked with 100 mM ethylenediamine in 150 mM Borate buffer pH 8.5 for 7 minutes at 10 μL/min.
The experiments were performed at 37° C. using a running buffer of 10 mM HEPES, 150 mM NaCl, 0.05% (v/v) Tween-20, pH 7.4, 1 mg/mL BSA.
Purified antibodies were captured at […] onto downstream flow cells (flow cells 2, 3 and 4) at a flow rate of 10 μL/min for 2 minutes. Different antibodies were captured on each flow cell. Flow cell 1 was used as a reference surface. Following capture of antibodies, analyte (buffer, or mGITR) was injected at 30 μL/min on all flow cells for two minutes. After the analyte injection, dissociation was monitored for 10 minutes followed by regeneration of all flow cells with one 3-minute injection of 10 mM Glycine pH 1.7. A 5-membered dilution series of mGITR was analyzed using this method, where the top concentration was 300 nM and the dilution factor was 3-fold. The 33 nM dilution was run in duplicate. Buffer cycles were collected for each captured antibody for double-referencing purposes (double-referencing as described in Myszka, J. Mol. Recognit. 12:279-284 (1999). The double-referenced sensorgrams were fit globally to a simple 1:1 Langmuir with mass transport binding model.
For orientation: Surface plasmon resonance follows binding to a sensor surface in real time, without labels.

The term Kd denotes a measure of binding affinity in units of concentration. For orientation: koff means a measure of how fast the partners let go of each other. A lower koff goes with slow dissociation. For orientation: kon means the rate constant with which the complex forms. The low end stands for slow association, the high end for fast association. By EC50 (read off the curve) is commonly meant the concentration that produces a half-maximal response. The low end stands for an effect from little substance, the high end for a need for much substance.

B1: h3G7 R5 (antibody, V domains shown)
VH: QVQLVQSGAEVKKPGASVKVSCKASGYTFTGATMNWVRQAPGQGLEWMGLINPYTGGIRYNQKFKGRVTMTRDTSTSTVYMELSSLRSEDTAVYYCARIGGYYDSMDYWGQGTLVTVSS
VL: DIQMTQSPSSLSASVGDRVTITCRASESVEPRGINFLNWYQQKPGKAPKLLIYAASQASKGVPSRFSGSGSGTDFTLTISSLQPEDFATYYCQQALELPWTFGGGTKVEIK
notes: Only variable domains are tied to this name
For the molecule B1, the “EC50 of macrophage-mediated cytotoxicity (ADCP) of a GITR+ T cell line” value (“EC50 of macrophage-mediated cytotoxicity” for short) in the assay with human GITR on cells [1] amounted to 0.92 nM. In assay [2], this molecule yielded a Kd of 5 nM, a dissociation rate constant (koff) of 0.0045 s⁻¹, an on-rate (kon) of 900000 M⁻¹ s⁻¹ and a t1/2 of 2.6 min. In assay [3], this molecule gave a Kd of 6.4 nM, a koff of 0.0038 s⁻¹, a kon of 600000 M⁻¹ s⁻¹ and a t1/2 of 3 min.

B2: h3G7 N9 (antibody, IgG1, V domains shown)
VH: QVQLVQSGAEVKKPGASVKVSCKASGYTFTGYTVSWVRQAPGQGLEWMGLINPYTGGIRYNQKFKGRVTMTRDTSTSTVYMELSSLRSEDTAVYYCARIGGYYDSMDYWGQGTLVTVSS
VL: DIQMTQSPSSLSASVGDRVTITCRASESVQPRGINFLNWYQQKPGKAPKLLIYAASNPSKGVPSRFSGSGSGTDFTLTISSLQPEDFATYYCQQALELPWTFGGGTKVEIK
With B2, the “EC50 of macrophage-mediated cytotoxicity” value with human GITR on cells [1] was determined as 0.692 nM.

B3: h3G7 LF (antibody, V domains shown)
VH: QVQLVQSGAEVKKPGASVKVSCKASGYTFTGATMNWVRQAPGQGLEWMGLINPYTGGIRYNQKFKGRVTMTRDTSTSTVYMELSSLRSEDTAVYYCARIGGYYDTMDYWGQGTLVTVSS
VL: DIQMTQSPSSLSASVGDRVTITCRASESVEPRGINFLNWYQQKPGKAPKLLIYAASQASKGVPSRFSGSGSGTDFTLTISSLQPEDFATYYCQQALELPWTFGGGTKVEIK
notes: Whole IgG captured on an anti-human Fc chip
In assay [2], B3 registered a Kd of 22 nM, a koff of 0.015 s⁻¹, a kon of 690000 M⁻¹ s⁻¹ and a t1/2 of 0.76 min. Moreover, in assay [3], binding was put at a Kd of 69 nM, the off-rate (koff) came out at 0.023 s⁻¹, the kon is 330000 M⁻¹ s⁻¹ and the t1/2 turned out to be 0.51 min.

B4: h3G7 AM (antibody, V domains shown)
VH: QVQLVQSGAEVKKPGASVKVSCKASGYTFTGATMNWVRQAPGQGLEWMGLINPYNGGIRYNQKFKGRVTMTRDTSTSTVYMELSSLRSEDTAVYYCARIGGYYDSMDYWGQGTLVTVSS
VL: DIQMTQSPSSLSASVGDRVTITCRASESVDPRGINFLNWYQQKPGKAPKLLIYAASNQAKGVPSRFSGSGSGTDFTLTISSLQPEDFATYYCQQALELPWTFGGGTKVEIK
notes: as for B3
As to B4, in assay [2], binding was put at a Kd of 17 nM, the koff was 0.019 s⁻¹, the kon is 1.1e+06 M⁻¹ s⁻¹ and the t1/2 worked out at 0.61 min. In assay [3], the equilibrium dissociation constant (Kd) is 13 nM, the koff is 0.0088 s⁻¹, the kon was determined as 670000 M⁻¹ s⁻¹ and the t1/2 amounted to 1.3 min.

B5: h10H2 N14 (antibody, IgG1, V domains shown)
VH: QVQLVQSGAEVKKPGSSVKVSCKASGGTFSRYWIEWVRQAPGQGLEWMGEILPGSGVTFENEKFKGRVTITADESTSTAYMELSSLRSEDTAVYYCARKGRYYAMDYWGQGTSVTVSS
VL: EIVLTQSPGTLSLSPGERATLSCRASQSIGTSIHWYQQKPGQAPRLLIYYASESVSGIPDRFSGSGSGTDFTLTISRLEPEDFAVYYCQQTYSWPATFGQGTKVEIK
notes: also called R14; h10H2 R14
Consider B5, for which the “EC50 of macrophage-mediated cytotoxicity” value with human GITR on cells [1] amounted to 2.01 nM. In addition, the “EC50 (read off the curve)” value with human GITR on cells [4] was ~0.03 µg/mL.

B6: h10H2 HU (antibody, V domains shown)
VH: QVQLVQSGAEVKKPGSSVKVSCKASGGTFSRYWIEWVRQAPGQGLEWMGEILPGSGVTNYNEKFKGRVTITADESTSTAYMELSSLRSEDTAVYYCARKGTYYAMDYWGQGTSVTVSS
VL: EIVLTQSPGTLSLSPGERATLSCRASQSIGTSIHWYQQKPGQAPRLLIYYASESVSGIPDRFSGSGSGTDFTLTISRLEPEDFAVYYCQQTYSWPATFGQGTKVEIK
notes: as for B3
Consider B6, for which, in assay [2], the Kd is > 100 nM, the dissociation rate constant (koff) was 0.0563 s⁻¹ and the t1/2 amounted to 0.21 min. For the same molecule, the Kd in assay [3] was > 100 nM.

B7: h10H2 AM (antibody, V domains shown)
VH: QVQLVQSGAEVKKPGSSVKVSCKASGGTFSRYWIEWVRQAPGQGLEWMGEILPGSGVTFENEKFKGRVTITADESTSTAYMELSSLRSEDTAVYYCARKGRYYAMDYWGQGTLVTVSS
VL: EIVLTQSPGTLSLSPGERATLSCRASQSIGTSIHWYQQKPGQAPRLLIYYASESVSGIPDRFSGSGSGTDFTLTISRLEPEDFAVYYCQQTYSWPATFGQGTKVEIK
notes: as for B3
B7: in assay [2], the Kd stood at 6.6 nM, the koff amounted to 0.00154 s⁻¹, the on-rate constant (kon) is 233000 M⁻¹ s⁻¹ and the t1/2 worked out at 7.5 min. Moreover, in assay [3], the Kd is > 100 nM, the dissociation rate constant (koff) turned out to be 0.011 s⁻¹ and the t1/2 stood at 1.1 min.

B8: anti-mGITR r21B6 mIgG2a (antibody, V domains shown)
VH: EAQLVESGGGLVQPGRSLKLSCEASGFTFTKYGMAWVRQAPTKGLEWVASIINSGGNTYYRDSVKGRFTISRDNAKSTLYLQMDSLRSEDTATYYCATDYYDGSYHSDVVDAWGQGVLVTVSS
VL: EIVLTQSPTTMAASPGEKVTITCRASSSLNYMHWFQQKSGTSPKPWIYDTSELASGVPDRFSGSGSGTSYSLTISSMEAEDAATYYCLQKNGYPLTFGSGTKLEIK
notes: also called m21B6 IgG2a
On to B8, for which, in assay [5], the affinity, expressed as Kd, was 21 nM; the koff was found to be 0.0065 s⁻¹; the on-rate (kon) came out at 310000 M⁻¹ s⁻¹; the t1/2 is 1.8 min.

B9: anti-mGITR r18H12 mIgG2a (antibody, V domains shown)
VH: EVQLVESDGVLVQPGKSLTLSCAASGFTFSDYYMAWVRQAPTKGLEWVATISYDDITTFYRDSVKGRFTISRDTAKSTLYLQMDSLRSEDTATYYCTRGLQWPYVMDAWGQGALVTVSS
VL: DIVMTQSPSSLAVSAGETVTINCKSSQSLLYSGNQKSYLAWYQQKPGQSPKLLIYWASPRQSGVPDRFIGSGSGTDFTLTISSVQAEDMATYYCQQYYDAPPTFGGGTKLEIK
B9: in assay [5], the affinity, expressed as Kd, was 2.2 nM; the koff came to 0.00049 s⁻¹; the kon worked out at 220000 M⁻¹ s⁻¹; the t1/2 worked out at 24 min.
